Experiments:
Experiment in all cases: multiplex bead assay
[1] = biological target: T1, HCoV-OC43 spike antigens (bead panel) (HCoV-OC43, UniProt P36334 14-1297)
T1 sequence: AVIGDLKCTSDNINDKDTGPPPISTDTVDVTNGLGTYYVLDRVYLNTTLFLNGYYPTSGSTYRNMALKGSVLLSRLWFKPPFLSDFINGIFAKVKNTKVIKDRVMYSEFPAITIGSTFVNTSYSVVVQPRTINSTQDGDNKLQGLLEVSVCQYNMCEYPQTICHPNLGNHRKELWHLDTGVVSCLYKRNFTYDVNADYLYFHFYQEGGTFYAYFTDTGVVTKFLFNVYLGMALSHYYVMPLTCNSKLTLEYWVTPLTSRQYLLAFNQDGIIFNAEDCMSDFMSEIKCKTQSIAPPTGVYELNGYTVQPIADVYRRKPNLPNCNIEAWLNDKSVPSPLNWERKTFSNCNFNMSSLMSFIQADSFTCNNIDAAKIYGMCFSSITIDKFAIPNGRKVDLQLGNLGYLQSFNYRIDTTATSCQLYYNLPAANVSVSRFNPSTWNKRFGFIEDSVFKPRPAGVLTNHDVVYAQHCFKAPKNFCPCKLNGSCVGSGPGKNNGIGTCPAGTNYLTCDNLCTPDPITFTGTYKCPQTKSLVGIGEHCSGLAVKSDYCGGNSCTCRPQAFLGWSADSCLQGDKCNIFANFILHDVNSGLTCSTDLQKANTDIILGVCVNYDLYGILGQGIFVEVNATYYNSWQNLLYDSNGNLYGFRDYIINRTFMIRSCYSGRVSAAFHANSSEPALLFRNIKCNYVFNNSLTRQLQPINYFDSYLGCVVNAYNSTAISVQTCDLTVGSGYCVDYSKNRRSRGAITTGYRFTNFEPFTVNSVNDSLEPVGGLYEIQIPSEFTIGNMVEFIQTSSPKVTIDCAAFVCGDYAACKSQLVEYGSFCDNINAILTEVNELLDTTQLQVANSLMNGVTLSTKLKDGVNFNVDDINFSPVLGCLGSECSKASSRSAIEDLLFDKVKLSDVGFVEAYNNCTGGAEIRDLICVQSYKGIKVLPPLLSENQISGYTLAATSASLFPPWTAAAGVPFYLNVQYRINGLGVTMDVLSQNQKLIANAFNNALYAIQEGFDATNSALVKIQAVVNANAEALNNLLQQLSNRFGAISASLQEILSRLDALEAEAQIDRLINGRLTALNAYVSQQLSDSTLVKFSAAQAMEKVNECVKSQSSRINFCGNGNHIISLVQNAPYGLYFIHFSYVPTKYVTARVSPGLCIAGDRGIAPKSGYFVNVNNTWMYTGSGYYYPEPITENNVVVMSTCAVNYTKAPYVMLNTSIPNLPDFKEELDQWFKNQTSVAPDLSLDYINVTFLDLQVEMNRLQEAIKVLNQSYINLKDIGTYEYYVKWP

[2] = biological target: T2, HCoV-229E spike antigens (bead panel) (HCoV-229E, UniProt P15423 16-1115)
T2 sequence: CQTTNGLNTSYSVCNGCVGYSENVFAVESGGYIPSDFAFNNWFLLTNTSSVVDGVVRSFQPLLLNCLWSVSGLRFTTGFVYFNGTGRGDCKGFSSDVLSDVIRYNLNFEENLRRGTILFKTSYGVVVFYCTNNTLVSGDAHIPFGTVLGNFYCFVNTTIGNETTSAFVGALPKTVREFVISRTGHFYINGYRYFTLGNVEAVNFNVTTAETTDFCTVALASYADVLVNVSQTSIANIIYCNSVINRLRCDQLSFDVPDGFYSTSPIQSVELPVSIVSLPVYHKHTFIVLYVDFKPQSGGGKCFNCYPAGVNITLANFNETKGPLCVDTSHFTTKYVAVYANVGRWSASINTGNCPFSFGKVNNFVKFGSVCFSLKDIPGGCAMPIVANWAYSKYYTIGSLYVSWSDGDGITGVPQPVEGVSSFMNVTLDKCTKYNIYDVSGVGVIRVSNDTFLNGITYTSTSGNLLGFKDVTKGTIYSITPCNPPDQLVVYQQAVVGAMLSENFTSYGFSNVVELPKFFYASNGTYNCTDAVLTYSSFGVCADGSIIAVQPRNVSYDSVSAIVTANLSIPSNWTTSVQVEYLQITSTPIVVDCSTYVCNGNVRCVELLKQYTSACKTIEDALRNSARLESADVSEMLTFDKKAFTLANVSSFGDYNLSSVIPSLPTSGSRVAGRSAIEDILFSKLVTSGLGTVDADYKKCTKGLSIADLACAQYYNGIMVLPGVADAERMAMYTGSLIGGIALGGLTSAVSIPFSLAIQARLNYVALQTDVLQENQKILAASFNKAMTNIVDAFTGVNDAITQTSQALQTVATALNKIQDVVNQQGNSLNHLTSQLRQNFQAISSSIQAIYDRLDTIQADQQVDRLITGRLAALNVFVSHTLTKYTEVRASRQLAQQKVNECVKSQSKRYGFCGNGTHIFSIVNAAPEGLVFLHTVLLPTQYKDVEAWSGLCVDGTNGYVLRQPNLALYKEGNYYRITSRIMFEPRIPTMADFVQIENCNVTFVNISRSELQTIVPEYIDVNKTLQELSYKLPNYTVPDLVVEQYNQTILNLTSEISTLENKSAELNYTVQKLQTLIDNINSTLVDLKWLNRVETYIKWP

[3] = biological target: SARS-CoV-1 spike antigens (bead panel) (SARS-CoV-1, UniProt P59594 14-1195)

Measured: binding result

B1: COV_2215 (antibody, V domains shown)
VH: EVQLVESGGGLVKPGGSLRLSCAASGFTFSHAWMSWVRQAPGKGLEWVGRIKSKTDGGTADYAAPVKGRFTISRDDSKNTLYLQMNSLKTEDTAVYYCATIRYYYDSSAYLNDAFDIWGQGTMVTVSS
VL: SYELTQPPSVSVSPGQTARITCSGDALPKKYAYWYQQKSGQAPVLVIYEDSKRPSGIPERFSGSSSGTMATLTISGAQVEDEADYYCYSTDSSGNHRVFAGGTKLTVLG
notes: human IgG1
no binding: all assays above

B2: COV_2125 (antibody, V domains shown)
VH: EVQLVESGGGVVQPGRSLRLSCAASGFTFSSYGMHWVRQAPGKGLEWVAVISYDGSNKYYADSVKGRFTISRDNSKNTLSLQMNSLRPEDTAVYYCAKDSPYYYDSSGYYPGYFQDWGQGSLVTVSS
VL: DIQMTQSPSSLSASIGDRVTITCRASQTISDYLNWYQQKPGKAPNLLIYAASTLQSGVPSRFSGSGSGTDFTLTISSLQPEDFATYYCQQSYITPRTFGQGTKVEIK
notes: human IgG1
no binding: all assays above

B3: COV_3069 (antibody, V domains shown)
VH: EVQLVESGGGLVKPGGSLRLSCAASGFTFGSYTMNWVRQAPGKGLEWVSSIDTTSSSIYYADSLKGRFAISRDSAKNSLYLQMNRLRAEDTAVYYCARGNGHSYDSSGYHYGMYFDYWGQGTLVTVSS
VL: DIQMTQSPSTLSASVGDRVTITCRASQSISRWLAWYQQKPGKAPKLLIYEVSSLENGVPSRFSGSRSGTEFTLTISSLQPDDFAIYYCQQYNTYSRTFGQGTKVEIKR
notes: human IgG1
no binding: all assays above

B4: COV_2169 (antibody, V domains shown)
VH: EVQLVESGGGVVQPGRSLRLSCAASGFTFSRYAMHWVRQAPGKGLEWVAVISYEGSNKYYADSVKGRFTISRNNSNNTLSLQMNSLRPDDTAVYYCVRSGGHYFDAFDLWGQGTMVTVSS
VL: EIVLTQSPGTLSLSPGERATLSCRASQSVSRNYVAWYQQKPGQAPRLLIYGASSRATGIPDRFSGSGSGTDFTLTISRLEPEDFALYYCQQYGSSYTFGQGTKLEIKR
notes: human IgG1
no binding: all assays above

B5: COV_2205 (antibody, V domains shown)
VH: EVQLVESGGGLVKPGGSLRLSCAASGFTFSDYYMIWIRQAPGEGLEWVSYISSRSSYTNYADSVKGRFTISRDNARNSLYLQMNSLRAEDTAVYYCARGQHDLLTGYYSWAYFDYWGQGTLVTVSS
VL: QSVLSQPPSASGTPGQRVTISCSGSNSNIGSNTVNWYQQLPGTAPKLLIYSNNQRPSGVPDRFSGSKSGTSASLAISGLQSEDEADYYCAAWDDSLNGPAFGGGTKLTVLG
notes: human IgG1
no binding: all assays above

B6: COV_3129 (antibody, V domains shown)
VH: QVQLQQWGAGLLKPSDTLSLTCAANGGGSFSGYYLGYIRQSPGKGLEWIGEINHNGGTNYNPSLKSRVTISGDTSKNQFSLKLSSVTAADTAIYYCARSRDSSLGDAVWYEYWGQGTLITVSS
VL: EIVLTQSPATLSLSPGERATLSCRASQSVDIYLAWYQQRPGQAPRLLISDASKRATGVPARFSGSGSGTDFTLTINSLEPEDFAIYYCQQRRDWPINFGQGTRLEIKR
notes: human IgG1
no binding: all assays above

Source: US20240101645A1 (HENRY M JACKSON FOUNDATION FOR THE ADVANCEMENT OF MILITARY …, published 2024)
